Measurements published in patent publication US20030224992A1, “Transcription factor modulators and uses thereof” (Praecis Pharmaceuticals Inc., priority 2002, published 2003).
Like-named read-outs stand apart in the source and are kept apart here.

How the values were obtained:
[1] = biological target: T1, Androgen receptor DNA binding domain (GST-ARDBD) (UniProt P10275 P10275:560-632); conditions: tags: GST fusion; chain copies: 2
[2] = biological target: T1, Androgen receptor DNA binding domain …; assay: FP; competition with 1 nM FAM-ARE, 50 nM GST-ARDBD; room temperature; conditions: tags: GST fusion; chain copies: 2
[3] = biological target: T1, Androgen receptor DNA binding domain …; assay: FP; scrambled control, competition with FAM-ARE; conditions: tags: GST fusion; chain copies: 2
[4] = biological target: T1, Androgen receptor DNA binding domain …; assay: FP; scrambled MPS control, competition with FAM-ARE; conditions: tags: GST fusion; chain copies: 2
[5] = biological target: T1, Androgen receptor DNA binding domain …; assay: FP; labelled probe, 1 nM with 50 nM GST-ARDBD; conditions: tags: GST fusion; chain copies: 2; label: 5'-FAM on top strand

T1 sequence (P10275 560-632, one chain of several): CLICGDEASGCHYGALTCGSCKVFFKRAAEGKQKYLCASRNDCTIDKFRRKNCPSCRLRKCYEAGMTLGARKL

B1: ARE duplex (dsDNA)
DNA 1: AGTCTGGTACAGGGTGTTCTTTTTA
DNA 2: TAAAAAGAACACCCTGTACCAGACT
B1: binds [1].

B2: ARE-MPS duplex (dsDNA)
DNA 1: AGTCTGGTACAGGGTGTTCTTTTTA
DNA 2: TAAAAAGAACACCCTGTACCAGACT
modifications: membrane permeable peptide Ac-…-NH2 conjugated at 5' of top strand
B2: binds [2].

B3: AREsc scrambled (dsDNA)
DNA 1: AGTCTACGAGTGGGGTTCTTTTTTA
DNA 2: TAAAAAAGAACCCCACTCGTAGACT
B3: no binding [3].

B4: AREsc-MPS scrambled (dsDNA)
DNA 1: AGTCTACGAGTGGGGTTCTTTTTTA
DNA 2: TAAAAAAGAACCCCACTCGTAGACT
modifications: membrane permeable peptide Ac-…-NH2 conjugate
B4: no binding [4].

B5: FAM-ARE duplex (dsDNA)
DNA 1: AGTCTGGTACAGGGTGTTCTTTTTA
DNA 2: TAAAAAGAACACCCTGTACCAGACT
B5: binds [5].
